Data: patent EP4631959A2, “NOVEL MINIGASTRIN-DERIVED CHOLECYSTOKININ 2 RECEPTOR BINDING MOLECULES FOR IMAGING AND TARGETED RADIOTHERAPY” (priority 2022, dated 2024)
Read-outs that look alike come from different tables or passages of the source. Starred links: 1 amine or outer side, 2 acyl side, 3 side chain; linkers in the order of their positions; H or OH if unused. Non-standard residues stand in square brackets, D forms with d. Residues, ends and D or L forms follow the SMILES beside them. *: point of attachment. DOTAGA = O=C(O)CN1CCN(CC(=O)O)CCN(C(CCC(=O)*)C(=O)O)CCN(CC(=O)O)CC1; X2 = O=C(O)CN1CCN(CC(=O)O)CCN([C@H](CCC(=O)*)C(=O)O)CCN(CC(=O)O)CC1; Benzoyl(4-SiFtBu2) = CC(C)(C)[Si](F)(c1ccc(C(=O)*)cc1)C(C)(C)C; DOTA = O=C(O)CN1CCN(CC(=O)O)CCN(CC(=O)*)CCN(CC(=O)O)CC1; X4 = CC(C)(C)[Si](O)(c1ccc(C(=O)*)cc1)C(C)(C)C; d(γGlu) = O=C(O)[C@@H](CCC(=O)[*:2])N[*:1]; 1Nal = N[C@@H](Cc1cccc2ccccc12)C(=O)O; Hyp = O=C(O)[C@@H]1C[C@@H](O)CN1; NMeNle = CCCC[C@H](NC)C(=O)O; PEG4 = NCCOCCOCCOCCOCCC(=O)O; Nle = CCCC[C@H](N)C(=O)O; dDap = NC[C@@H](N)C(=O)O

Legend:
[1] = n-Octanol-PBS distribution coefficient (logD7.4); assay type: physicochemical; conditions: pH = 7.4, ^177Lu-labeled
Experimental: Approximately 1 MBq of the labeled tracer was dissolved in 1 mL of a 1/1 mixture (v/v) of phosphate buffered saline (PBS, pH = 7.4) and n-octanol in an Eppendorf tube (1.5 mL). After vigorous mixing of the suspension for 3 min at rt, the vial was centrifuged at 9,000 rpm for 5 min (Biofuge 15, Heraeus Sepatech, Osterode, Germany) and 200 µL aliquots of both layers were measured in a γ-counter. The experiment was repeated at least five times.

CCK-2R = biological target: T1, CCK-2R (Rattus norvegicus, UniProt P30553); experiment: Determination of IC50: CCK-2R affinity on AR4-2J cells, competition with [^177Lu]Lu-DOTA-PP-F11N; assay type: binding
T1 construct: The CCK-2R expressing rat pancreatic tumor cells AR4-2J; host or cells: AR4-2J rat pancreatic tumor cells
T1 sequence (P30553 1-452): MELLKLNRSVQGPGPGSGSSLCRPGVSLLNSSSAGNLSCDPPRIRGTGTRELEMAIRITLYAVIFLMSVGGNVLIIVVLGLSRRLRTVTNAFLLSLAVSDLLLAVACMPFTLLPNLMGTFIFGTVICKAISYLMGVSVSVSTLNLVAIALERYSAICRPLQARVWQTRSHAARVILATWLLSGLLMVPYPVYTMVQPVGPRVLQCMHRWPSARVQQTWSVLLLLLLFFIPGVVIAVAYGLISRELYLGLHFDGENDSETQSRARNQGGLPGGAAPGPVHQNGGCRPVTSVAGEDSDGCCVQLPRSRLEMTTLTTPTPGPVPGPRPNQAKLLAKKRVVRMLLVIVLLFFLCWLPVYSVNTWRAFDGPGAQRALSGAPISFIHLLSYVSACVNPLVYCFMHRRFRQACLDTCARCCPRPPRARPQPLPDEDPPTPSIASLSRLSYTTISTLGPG
How it was run: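 Competitive displacement of 0.3 pmol/well [177Lu]Lu-DOTA-PP-F11N by compounds (10^-10 to 10^-4 M) on AR4-2J cells in BSA-supplemented medium, 3 h at 37 °C. Free label was collected from medium plus PBS rinse, and cell-bound label was recovered with 1 M NaOH, both measured by γ-counter. Each IC50 was determined twice, in triplicate.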

[2] = read-out: IC50 [nM] (n = 3), ^natLu-labeled; AR4-2J cells; ^natLu-labeled

Row | SMILES | logD7.4 (n ≥ 5), ^177Lu-labeled [1] | IC50 (CCK-2R; [2]) | IC50 (CCK-2R; AR4-2J cells; ^natLu-labeled; read-out: IC50 [nM] (n = 3), ^natLu-labeled)
1 | CCCC[C@@H](C(=O)N[C@@H](CC(=O)O)C(=O)N[C@@H](Cc1cccc2ccccc12)C(N)=O)N(C)C(=O)[C@H](Cc1c[nH]c2ccccc12)NC(=O)CCOCCOCCOCCOCCNC(=O)CC[C@@H](NC(=O)[C@@H]1C[C@@H](O)CN1C(=O)[C@@H]1C[C@@H](O)CN1C(=O)[C@@H]1C[C@@H](O)CN1C(=O)[C@@H]1C[C@@H](O)CN1C(=O)[C@@H]1C[C@@H](O)CN1C(=O)[C@@H]1C[C@@H](O)CN1C(=O)CC[C@@H](NC(=O)[C@@H](CNC(=O)c1ccc([Si](O)(C(C)(C)C)C(C)(C)C)cc1)NC(=O)CN1CCN(CC(=O)O)CCN(CC(=O)O)CCN(CC(=O)O)CC1)C(=O)O)C(=O)O [DOTA-rhCCK-84.2, DOTA-dap(SiOH)-γ-glu-(Hyp)6-γ-glu-(PEG)3-Trp-(N-Me)Nle-Asp-1-Nal-NH2] ({DOTA}-[dDap](X4)[d(γGlu)][Hyp][Hyp][Hyp][Hyp][Hyp][Hyp][d(γGlu)][PEG4]W[NMeNle]D[1Nal]-NH2) | −2.21 ± 0.08 | 13 ± 0.8 nM | –
2 | CCCC[C@H](NC(=O)[C@H](Cc1c[nH]c2ccccc12)NC(=O)CNC(=O)[C@H](Cc1ccc(O)cc1)NC(=O)[C@H](C)NC(=O)[C@@H](CNC(=O)c1ccc([Si](F)(C(C)(C)C)C(C)(C)C)cc1)NC(=O)[C@@H](CCC(=O)O)NC(=O)[C@@H](CCC(=O)O)NC(=O)[C@@H](CCC(=O)O)NC(=O)[C@@H](CCC(=O)O)NC(=O)[C@@H](CCC(=O)O)NC(=O)[C@@H](CCC(=O)O)NC(=O)CCC(C(=O)O)N1CCN(CC(=O)O)CCN(CC(=O)O)CCN(CC(=O)O)CC1)C(=O)N[C@@H](CC(=O)O)C(=O)N[C@@H](Cc1ccccc1)C(N)=O (stereo partly drawn) [DOTAGA-MG-SiFA-5, DOTAGA-glu-[dap(SiFA)^6]F11N] ({DOTAGA}-[dE][dE][dE][dE][dE][dE][dDap](Benzoyl(4-SiFtBu2))AYGW[Nle]DF-NH2) | −1.71 ± 0.10 | 629 ± 48 nM | –
3 | CCCC[C@H](NC(=O)[C@H](Cc1c[nH]c2ccccc12)NC(=O)CNC(=O)[C@H](Cc1ccc(O)cc1)NC(=O)[C@H](C)NC(=O)[C@@H](CCC(=O)O)NC(=O)[C@@H](CNC(=O)c1ccc([Si](F)(C(C)(C)C)C(C)(C)C)cc1)NC(=O)[C@@H](CCC(=O)O)NC(=O)[C@@H](CCC(=O)O)NC(=O)[C@@H](CCC(=O)O)NC(=O)[C@@H](CCC(=O)O)NC(=O)[C@@H](CCC(=O)O)NC(=O)CCC(C(=O)O)N1CCN(CC(=O)O)CCN(CC(=O)O)CCN(CC(=O)O)CC1)C(=O)N[C@@H](CC(=O)O)C(=O)N[C@@H](Cc1ccccc1)C(N)=O (stereo partly drawn) [DOTAGA-MG-SiFA-6, DOTAGA-glu-[dap(SiFA)^5]F11N] ({DOTAGA}-[dE][dE][dE][dE][dE][dDap](Benzoyl(4-SiFtBu2))[dE]AYGW[Nle]DF-NH2) | −1.95 ± 0.09 | 155 ± 18 nM | –
4 | CCCC[C@H](NC(=O)[C@H](Cc1c[nH]c2ccccc12)NC(=O)CNC(=O)[C@H](Cc1ccc(O)cc1)NC(=O)[C@H](C)NC(=O)[C@@H](CCC(=O)O)NC(=O)[C@@H](CCC(=O)O)NC(=O)[C@@H](CNC(=O)c1ccc([Si](F)(C(C)(C)C)C(C)(C)C)cc1)NC(=O)[C@@H](CCC(=O)O)NC(=O)[C@@H](CCC(=O)O)NC(=O)[C@@H](CCC(=O)O)NC(=O)[C@@H](CCC(=O)O)NC(=O)CCC(C(=O)O)N1CCN(CC(=O)O)CCN(CC(=O)O)CCN(CC(=O)O)CC1)C(=O)N[C@@H](CC(=O)O)C(=O)N[C@@H](Cc1ccccc1)C(N)=O (stereo partly drawn) [DOTAGA-MG-SiFA-7, DOTAGA-glu-[dap(SiFA)^4]F11N] ({DOTAGA}-[dE][dE][dE][dE][dDap](Benzoyl(4-SiFtBu2))[dE][dE]AYGW[Nle]DF-NH2) | −2.03 ± 0.10 | 156 ± 4 nM | –
5 | CCCC[C@H](NC(=O)[C@H](Cc1c[nH]c2ccccc12)NC(=O)CNC(=O)[C@H](Cc1ccc(O)cc1)NC(=O)[C@H](C)NC(=O)[C@@H](CCC(=O)O)NC(=O)[C@@H](CCC(=O)O)NC(=O)[C@@H](CCC(=O)O)NC(=O)[C@@H](CNC(=O)c1ccc([Si](F)(C(C)(C)C)C(C)(C)C)cc1)NC(=O)[C@@H](CCC(=O)O)NC(=O)[C@@H](CCC(=O)O)NC(=O)[C@@H](CCC(=O)O)NC(=O)CCC(C(=O)O)N1CCN(CC(=O)O)CCN(CC(=O)O)CCN(CC(=O)O)CC1)C(=O)N[C@@H](CC(=O)O)C(=O)N[C@@H](Cc1ccccc1)C(N)=O (stereo partly drawn) [DOTAGA-MG-SiFA-8, DOTAGA-glu-[dap(SiFA)^3]F11N] ({DOTAGA}-[dE][dE][dE][dDap](Benzoyl(4-SiFtBu2))[dE][dE][dE]AYGW[Nle]DF-NH2) | −2.19 ± 0.08 | 185 ± 14 nM | –
6 | CCCC[C@H](NC(=O)[C@H](Cc1c[nH]c2ccccc12)NC(=O)CNC(=O)[C@H](Cc1ccc(O)cc1)NC(=O)[C@H](C)NC(=O)[C@@H](CCC(=O)O)NC(=O)[C@@H](CCC(=O)O)NC(=O)[C@@H](CCC(=O)O)NC(=O)[C@@H](CCC(=O)O)NC(=O)[C@@H](CNC(=O)c1ccc([Si](F)(C(C)(C)C)C(C)(C)C)cc1)NC(=O)[C@@H](CCC(=O)O)NC(=O)[C@@H](CCC(=O)O)NC(=O)CCC(C(=O)O)N1CCN(CC(=O)O)CCN(CC(=O)O)CCN(CC(=O)O)CC1)C(=O)N[C@@H](CC(=O)O)C(=O)N[C@@H](Cc1ccccc1)C(N)=O (stereo partly drawn) [DOTAGA-MG-SiFA-9, DOTAGA-glu-[dap(SiFA)^2]F11N] ({DOTAGA}-[dE][dE][dDap](Benzoyl(4-SiFtBu2))[dE][dE][dE][dE]AYGW[Nle]DF-NH2) | −2.67 ± 0.05 | 90 ± 2.3 nM | –
7 | CCCC[C@H](NC(=O)[C@H](Cc1c[nH]c2ccccc12)NC(=O)CNC(=O)[C@H](Cc1ccc(O)cc1)NC(=O)[C@H](C)NC(=O)[C@@H](CCC(=O)O)NC(=O)[C@@H](CCC(=O)O)NC(=O)[C@@H](CCC(=O)O)NC(=O)[C@@H](CCC(=O)O)NC(=O)[C@@H](CCC(=O)O)NC(=O)[C@@H](CNC(=O)c1ccc([Si](F)(C(C)(C)C)C(C)(C)C)cc1)NC(=O)[C@@H](CCC(=O)O)NC(=O)CCC(C(=O)O)N1CCN(CC(=O)O)CCN(CC(=O)O)CCN(CC(=O)O)CC1)C(=O)N[C@@H](CC(=O)O)C(=O)N[C@@H](Cc1ccccc1)C(N)=O (stereo partly drawn) [DOTAGA-MG-SiFA-10, DOTAGA-glu-[dap(SiFA)^1]F11N] ({DOTAGA}-[dE][dDap](Benzoyl(4-SiFtBu2))[dE][dE][dE][dE][dE]AYGW[Nle]DF-NH2) | −2.22 ± 0.08 | 56.8 ± 6.4 nM | –
8 | CCCC[C@H](NC(=O)[C@H](Cc1c[nH]c2ccccc12)NC(=O)CNC(=O)[C@H](Cc1ccc(O)cc1)NC(=O)[C@H](C)NC(=O)[C@@H](CCC(=O)O)NC(=O)[C@@H](CCC(=O)O)NC(=O)[C@@H](CCC(=O)O)NC(=O)[C@@H](CCC(=O)O)NC(=O)[C@@H](CCC(=O)O)NC(=O)[C@@H](CCC(=O)O)NC(=O)[C@@H](CNC(=O)c1ccc([Si](F)(C(C)(C)C)C(C)(C)C)cc1)NC(=O)CCC(C(=O)O)N1CCN(CC(=O)O)CCN(CC(=O)O)CCN(CC(=O)O)CC1)C(=O)N[C@@H](CC(=O)O)C(=O)N[C@@H](Cc1ccccc1)C(N)=O (stereo partly drawn) [DOTAGA-MG-SiFA-11, DOTAGA-dap(SiFA)-F11N] ({DOTAGA}-[dDap](Benzoyl(4-SiFtBu2))[dE][dE][dE][dE][dE][dE]AYGW[Nle]DF-NH2) | −2.63 ± 0.08 | 75.7 ± 10.7 nM | –
9 | CCCC[C@H](NC(=O)[C@H](Cc1c[nH]c2ccccc12)NC(=O)CNC(=O)[C@H](Cc1ccc(O)cc1)NC(=O)[C@H](C)NC(=O)[C@@H](CNC(=O)c1ccc([Si](F)(C(C)(C)C)C(C)(C)C)cc1)NC(=O)CC[C@@H](NC(=O)CC[C@@H](NC(=O)CC[C@@H](NC(=O)CC[C@@H](NC(=O)CC[C@@H](NC(=O)CC[C@@H](NC(=O)CC[C@H](C(=O)O)N1CCN(CC(=O)O)CCN(CC(=O)O)CCN(CC(=O)O)CC1)C(=O)O)C(=O)O)C(=O)O)C(=O)O)C(=O)O)C(=O)O)C(=O)N[C@@H](CC(=O)O)C(=O)N[C@@H](Cc1ccccc1)C(N)=O [DOTAGA-MG-SiFA-13, DOTAGA-γ-glu-[dap(SiFA)^6]γ-F11N] ({X2-d(γGlu)-d(γGlu)-d(γGlu)-d(γGlu)-d(γGlu)-d(γGlu)}-[dDap](Benzoyl(4-SiFtBu2))AYGW[Nle]DF-NH2) | −2.15 ± 0.08 | – | 863 ± 147 nM
